3 substances from article PMC7754295 can be followed below.

Assay in all cases: native gel or EMSA
Experiment [1] addresses NpHV1‐GFP with C‐terminal StrepTagII (Nicoletia phytophila).
Experiment [2] addresses NpHV1‐GFP with C‐terminal deca‐His Tag (Nicoletia phytophila).
The target in experiment [3] is NpHV1‐GFP (Nicoletia phytophila voltage‐gated proton channel 1 with GFP) (Nicoletia phytophila).

With “NpHV1‐GFP with C‐terminal StrepTagII (natural protein)”, in experiment [1], the stoichiometry N came out at 2.

In turn, “NpHV1‐GFP with C‐terminal deca‐His Tag (natural protein)” showed a stoichiometry N in experiment [2] of 2.

On to “NpHV1‐GFP (Nicoletia phytophila voltage‐gated proton channel 1 with GFP) (natural protein)”, for which the stoichiometry N in experiment [3] came out at 2.
